Laboratory results reported in publication PMC5007788, “Heat Shock Factor 1 Is a Substrate for p38 Mitogen-Activated Protein Kinases” (Molecular and Cellular Biology, 2016).
Several values for one entry are separate records, joined by “and”; a condition that tells them apart may be missing. Equal values may be shown once.

T1: Heat shock factor 1 (HSF1), endogenous in MDA-MB-231 cells (human (endogenous in MDA-MB-231)), Q00613
T1 chain: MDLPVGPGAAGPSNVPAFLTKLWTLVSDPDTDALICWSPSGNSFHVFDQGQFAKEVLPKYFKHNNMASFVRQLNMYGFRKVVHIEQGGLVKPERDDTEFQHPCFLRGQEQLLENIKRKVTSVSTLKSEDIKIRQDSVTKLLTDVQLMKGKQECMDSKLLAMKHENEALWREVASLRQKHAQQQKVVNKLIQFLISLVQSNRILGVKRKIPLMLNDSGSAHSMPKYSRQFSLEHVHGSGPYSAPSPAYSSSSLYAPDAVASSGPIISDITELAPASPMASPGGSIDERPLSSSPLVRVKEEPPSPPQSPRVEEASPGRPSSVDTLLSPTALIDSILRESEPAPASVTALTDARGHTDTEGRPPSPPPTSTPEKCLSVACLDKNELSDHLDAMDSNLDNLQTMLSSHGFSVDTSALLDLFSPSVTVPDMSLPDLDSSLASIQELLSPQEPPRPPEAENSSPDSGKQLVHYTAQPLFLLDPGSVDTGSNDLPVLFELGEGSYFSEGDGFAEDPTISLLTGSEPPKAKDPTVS


Assays:
[1] = molecular target: T1, Heat shock factor 1 (HSF1), endogenous …; assay: cross-linking; MDA-MB-231 cells treated with 20 uM PEITC for 3 h, fixed with 0.4% (wt/vol) paraformaldehyde in PBS, quenched with glycine; nuclear and cytoplasmic fractions; SDS-PAGE (10% gel), blot with anti-HSF1; conditions: remark: other sources report otherwise
[2] = molecular target: the molecule itself; assay: gel electrophoresis (NuPAGE NoVex Bis-Tris 10% gel); purified recombinant hexahistidine-tagged HSF1 (WT and S326A) run on NuPAGE; dimeric and trimeric species formed spontaneously beside the major band

Binder	stoichiometry N [1]	stoichiometry N [2]
Heat shock factor 1 (HSF1), endogenous in MDA-MB-231 cells, Q00613 1-529 (natural protein) MDLPVGPGAAGPSNVPAFLTKLWTLVSDPDTDALICWSPSGNSFHVFDQGQFAKEVLPKYFKHNNMASFVRQLNMYGFRKVVHIEQGGLVKPERDDTEFQHPCFLRGQEQLLENIKRKVTSVSTLKSEDIKIRQDSVTKLLTDVQLMKGKQECMDSKLLAMKHENEALWREVASLRQKHAQQQKVVNKLIQFLISLVQSNRILGVKRKIPLMLNDSGSAHSMPKYSRQFSLEHVHGSGPYSAPSPAYSSSSLYAPDAVASSGPIISDITELAPASPMASPGGSIDERPLSSSPLVRVKEEPPSPPQSPRVEEASPGRPSSVDTLLSPTALIDSILRESEPAPASVTALTDARGHTDTEGRPPSPPPTSTPEKCLSVACLDKNELSDHLDAMDSNLDNLQTMLSSHGFSVDTSALLDLFSPSVTVPDMSLPDLDSSLASIQELLSPQEPPRPPEAENSSPDSGKQLVHYTAQPLFLLDPGSVDTGSNDLPVLFELGEGSYFSEGDGFAEDPTISLLTGSEPPKAKDPTVS	2 and 3	
Recombinant hexahistidine-tagged mutant S326A HSF1 (natural protein, human, UniProt Q00613 1-529, looked up, Heat shock factor 1, human, full-length cDNA from Addgene plasmid 32537 (P to L at position 448) in pet15b, with S326A made by site-directed mutagenesis; Made from the pet15b plasmid of m3; also called S326A mutant HSF1; HSF1 S326A; source: E. coli BL21(DE3)pLysS, purified (nickel agarose resin, dialysis)) MDLPVGPGAAGPSNVPAFLTKLWTLVSDPDTDALICWSPSGNSFHVFDQGQFAKEVLPKYFKHNNMASFVRQLNMYGFRKVVHIEQGGLVKPERDDTEFQHPCFLRGQEQLLENIKRKVTSVSTLKSEDIKIRQDSVTKLLTDVQLMKGKQECMDSKLLAMKHENEALWREVASLRQKHAQQQKVVNKLIQFLISLVQSNRILGVKRKIPLMLNDSGSAHSMPKYSRQFSLEHVHGSGPYSAPSPAYSSSSLYAPDAVASSGPIISDITELAPASPMASPGGSIDERPLSSSPLVRVKEEPPSPPQSPRVEEASPGRPSSVDTLLAPTALIDSILRESEPAPASVTALTDARGHTDTEGRPPSPPPTSTPEKCLSVACLDKNELSDHLDAMDSNLDNLQTMLSSHGFSVDTSALLDLFSPSVTVPDMSLPDLDSSLASIQELLSPQELPRPPEAENSSPDSGKQLVHYTAQPLFLLDPGSVDTGSNDLPVLFELGEGSYFSEGDGFAEDPTISLLTGSEPPKAKDPTVS		2 and 3
Recombinant hexahistidine-tagged HSF1 wild-type (natural protein, human, UniProt Q00613 1-529, looked up, subcloned into pet15b (NdeI, XhoI); The vector pet15b is named; also called His-HSF1; HSF1 WT; source: E. coli BL21(DE3)pLysS, purified (nickel agarose resin, dialysis)) MDLPVGPGAAGPSNVPAFLTKLWTLVSDPDTDALICWSPSGNSFHVFDQGQFAKEVLPKYFKHNNMASFVRQLNMYGFRKVVHIEQGGLVKPERDDTEFQHPCFLRGQEQLLENIKRKVTSVSTLKSEDIKIRQDSVTKLLTDVQLMKGKQECMDSKLLAMKHENEALWREVASLRQKHAQQQKVVNKLIQFLISLVQSNRILGVKRKIPLMLNDSGSAHSMPKYSRQFSLEHVHGSGPYSAPSPAYSSSSLYAPDAVASSGPIISDITELAPASPMASPGGSIDERPLSSSPLVRVKEEPPSPPQSPRVEEASPGRPSSVDTLLSPTALIDSILRESEPAPASVTALTDARGHTDTEGRPPSPPPTSTPEKCLSVACLDKNELSDHLDAMDSNLDNLQTMLSSHGFSVDTSALLDLFSPSVTVPDMSLPDLDSSLASIQELLSPQELPRPPEAENSSPDSGKQLVHYTAQPLFLLDPGSVDTGSNDLPVLFELGEGSYFSEGDGFAEDPTISLLTGSEPPKAKDPTVS		2 and 3
